Assay results published in publication PMC7717906 (eLife, 2020).

Target: the molecule itself
Test: native gel or EMSA

B1: MoOsm1-GFP (enzyme)
chain: MAEFVRAQIFGTTFEITSRYSDLQPVGMGAFGLVCSARDQLTNQNVAIKKIMKPFSTPVLAKRTYRELKLLKHLKHENVISLSDIFISPLEDIYFVTELLGTDLHRLLTSRPLEKQFIQYFLYQIMRGLKYVHSAGVVHRDLKPSNILVNENCDLKICDFGLARIQDPQMTGYVSTRYYRAPEIMLTWQKYDVEVDIWSAGCIFAEMLEGKPLFPGKDHVNQFSIITELLGTPPDDVINTIASENTLRFVKSLPKRERQPLKNKFKNADPSAIDLLERMLVFDPKKRITATEALAHEYLTPYHDPTDEPIAEEKFDWSFNDADLPVDTWKIMMYSEILDYHNAEAGMQQMDDQFTGQ
stoichiometry N: 2
